Assay results as given in the supplement of paper PMC12764529.
± gives the half width of the 95% confidence interval.

What was measured:
[1] = folding stability dG unfold from chymotrypsin proteolysis; higher = more stable
How it was run: (§1)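 Bayesian fitting of sequencing counts gave K50 for each design. Unfolding free energy followed by setting this against a sequence-predicted unfolded-state K50 and a shared folded-state K50, either per protease or with trypsin and chymotrypsin combined. The designs, under 80 residues and lacking cysteine, were digested in a PA-tagged cDNA display format at 11 threefold-diluted protease concentrations and without protease, and only those with AlphaFold2 dimer inter-PAE above 15 were kept.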

[2] = folding stability dG unfold from trypsin proteolysis; higher = more stable
How it was run: as §1

[3] = folding stability dG unfold (combined trypsin and chymotrypsin); higher = more stable
How it was run: as §1

Sequence	folding stability dG unfold [1] [kcal/mol]	folding stability dG unfold [2] [kcal/mol]	folding stability dG unfold [3] [kcal/mol]
SAGGPVTFEAPLEELLKALPPELVRHASVEPLGEGERRFIATVELEDRRIEAYSDPERPGRVLVTLHFSAGG [r13_942_TrMRF]	0.688 ± 0.12	0.332 ± 0.11	0.569 ± 0.12
SAGGMVIPPEATLTGSTTSWVTTSDGRKLLVTTPVYRFPGNTTVVVSTVTDPTSAASTVTVSTEPALSAGGS [r16_370_JUSTAS]	0.107 ± 0.12	0.498 ± 0.069	0.374 ± 0.085
SAGGSAKGPKTVTYEFKIKYGDKYYLIKVTVKLHEVKYDPKTKKYTLNLKPNDKLEIKVEIYELDDSAGGSA [r15_1040_TrMRF]	4.09 ± 0.086	2.29 ± 0.26	3.7 ± 0.3
SAGGSAGGSASAEIVPLTLTFPVKFKKDPNGKTKEKTVEVKIELYVIRDPNGNLYTIAKISLSAGGSAGGSA [r18_284_TrMRF]	4.24 ± 0.089	3.01 ± 0.14	3.98 ± 0.15
SAFKILPDGTILIDIGEDEAKKLSIEEIEALVKEIEKLLPKDYKVEIHIIPKKPIPKPPLIPGKDNLIGSAG [r14_312_TrMRF]	1.97 ± 0.041	1.94 ± 0.063	1.91 ± 0.071
SAGGSAGGSAGKLVVVRAIDPENPFVVATTSDNRTYVFDSLEELLEQVPEGVPVLFLPTVSAGGSAGGSAGG [r17_295_TrMRF]	1.22 ± 0.071	0.369 ± 0.028	0.933 ± 0.081
SAGGGASLNSIKISKIPGLNKYKITLPTSAAPGTEVTITINNPKGKETLTFTLPVKPLPGNTVVLLLSAGGS [r8_195_JUSTAS]	1.74 ± 0.059	1.46 ± 0.045	1.74 ± 0.066
SAGGSAGGSAEELAKELAKKLPPGAKFKIEVKTEYYKTKDGKTVKKKVEIKIYNEDGEEVTSAGGSAGGSAG [r3_247_TrROS_Hall]	1.1 ± 0.51	-0.0104 ± 0.19	0.679 ± 0.32
SAGGSAGGSAGGPEIVSAEVLAVFDDGKLVKVKLRVPTPGKGYRYLEAVFLVKPGEKLLSAGGSAGGSAGGS [r10_1183_TrMRF]	2.12 ± 0.033	2.05 ± 0.052	2.1 ± 0.033
SAGGSAGGSAGGSGYTVKITLKNPDGTESTITISGTGSKEEIINSIKKKYPNNVTKVIESAGGSAGGSAGGS [r4_412_JUSTAS]	1.94 ± 0.069	1.37 ± 0.16	1.53 ± 0.31
SAGGSAGGWYVRITTNNGNQISIHLEELGLPEESFKEMTEEDLAEYLSKLFPGRPIKIEPVPLPSAGGSAGG [r6_165_TrROS]	3.35 ± 0.11	3.07 ± 0.14	3.14 ± 0.14
SAGGSAGGSAGAVFTLPDGMKITIEKNEDGTYTITIETDGKTETIEIKPGETIEIEIFPPSAGGSAGGSAGG [r11_164_TrROS_Hall]	3.202 ± 0.03	2.43 ± 0.093	2.91 ± 0.077
SKIKKIKIVKVKPGEEITTPDGRKIKPGDIVIVDEKTNKVYSAEEIKKLLKELEEKLKKLPKKPKPKKKKSA [r9_517_TrROS_Hall]	1.78 ± 0.089	0.814 ± 0.07	1.49 ± 0.17
SAMKEAKIVSIEFDEETGTVTIEIEVPPGAKLKIRFLDTGEELEVEVKPGETITITVPKEPILIEIELESAG [r14_96_TrROS_Hall]	4.09 ± 0.24	3.43 ± 0.18	3.79 ± 0.54
SAGGSAAPVPVGAELAAAAPGAAVTVELPDGVTATVTRVGDTLVVDVTRFSEPPLPVSSATATLPLSAGGSA [r15_558_JUSTAS]	0.638 ± 0.028	-0.369 ± 0.066	0.409 ± 0.05
SAVITLPDGTTVPSTVVEETETPDGVRITVRTERDGVLEIVDLYEPPGGEVTVLSTEVVPVPPGDPALESAG [r14_13_JUSTAS]	-0.00381 ± 0.062	0.518 ± 0.028	0.285 ± 0.091
SAGGSAGGSAGGSKAKKITIWIPPGNINPEVKDQLQKEGINIEIQPIPAKRDPDGKPRWSAGGSAGGSAGGS [r4_294_TrROS]	1.2 ± 0.036	-0.558 ± 0.34	0.81 ± 0.14
SAGGSAGGSAGGPPDEVVTTVTEIELPDDKVVTVTTTTVPGAGTTTTTVTTKPLTKPGVSSAGGSAGGSAGG [r11_695_JUSTAS]	1.12 ± 0.029	2.5 ± 0.086	1.82 ± 0.047
SAGGSAGGSAIPKAPVTVTVTTADGRPALATVEYYPDGVLVTVHYGDKTVTAWVAPADISASAGGSAGGSAG [r3_373_TrMRF]	2.19 ± 0.11	0.864 ± 0.053	1.54 ± 0.17
SADNYFIRIKHKLNGKPRERTYPIDSPEEALDAIKDELQPHFPGAPIDKVKIDVFNPNNGEWQEITLKISAG [r14_54_TrROS]	0.373 ± 0.13	-0.0876 ± 0.11	0.256 ± 0.13
SAGGSAGGSSSMTLTTDDGSTLDSVTRDPNSDTATVTYSGSGETVTATATTLPDGSVVVTVVTSAGGSAGGS [r12_839_JUSTAS]	0.784 ± 0.092	1.26 ± 0.054	1.08 ± 0.11

Sequence	folding stability dG unfold [1] [kcal/mol]	folding stability dG unfold [2] [kcal/mol]	folding stability dG unfold [3] [kcal/mol]
SAGGKEVKITIEYDEETKEVRVTIEKDGKEITVTMTAEELKKLLEELEKLPPVVVKDKDGKEKVVLLSAGGS [r8_332_TrROS_Hall]	-0.472 ± 0.26	1.14 ± 0.037	0.696 ± 0.13
SAGGSAGGSAMITYTAPGGTPVTVTPDPVTGTLSATFPDGSVITAPVVGDTIPVTVVPPAAVSAGGSAGGSA [r18_405_JUSTAS]	-0.295 ± 0.11	1.37 ± 0.023	0.851 ± 0.042
SAGFEFPPGQEIEFKVQYTSPMPNPDGGWGPVTETYEITIEIVPVPPIPFKDPAQAEELRQKGLPPDDLSAG [r5_624_TrROS]	1.44 ± 0.041	0.546 ± 0.06	1.23 ± 0.14
GFDEAELKKLLEEKAAELEKKGYKVLKTSIEPVPDGTYGGKIGNKTITHPTPNGLTYSVSVYYEKVSPKKKS [r1_31_JUSTAS]	0.331 ± 0.25	0.232 ± 0.13	0.351 ± 0.16
SAGGSAGGSAKKKVIVIELPEDMTLEEALALAKALAPPGAEIVIRRDGKLYVIKIEDPEKLSAGGSAGGSAG [r3_50_TrROS_Hall]	2.82 ± 0.084	2.24 ± 0.11	2.55 ± 0.17
SAGGSALDPGKPVRVTVNLRVYRPLPDGTVKTFPSATVDLPVEEVLDLAKALPKEYTVTVDSIVVDSAGGSA [r15_833_TrMRF]	0.663 ± 0.17	0.249 ± 0.14	0.513 ± 0.18
SAGGMVEELDAKDADKIIVGADPDEEVFVLVEVYDDGELLEVVELEPGEEIEIPKDYKVKIVTVPKDLSAGG [r13_978_TrMRF]	-0.0827 ± 0.63	0.119 ± 0.081	-0.293 ± 0.52
SAGMVIAIKPGEPRILVSGLPPELVRRIAEELGAPDVVPVEPGVPAWTALENHPDPAAFLVIPPELALSAGG [r19_270_TrMRF]	0.393 ± 0.12	-0.822 ± 0.7	0.0501 ± 0.15
SAGGMTEVSEVERSVIPDEGIPVTLERVETTVTVPPTTYKDEKGEVLPPGAVVHTESTVTIEERPELSAGGS [r8_262_JUSTAS]	0.095 ± 0.1	0.22 ± 0.036	0.257 ± 0.14
SMKIYILSSGDKEKVLAEVKEKYPDLEIELFEDIEEAKKAAEKGNLLISNGDEELAKEFEEKYNVKVIIKSA [r9_380_JUSTAS]	1.65 ± 0.041	1.41 ± 0.039	1.6 ± 0.14
SAGGSAGGSAGAEITVEYNPETNVLTVTVKVEFTLPDGTKVERTYRATINADGTITIEPESAGGSAGGSAGG [r11_911_TrROS_Hall]	5 ± 0.095	3.99 ± 0.27	4.97 ± 0.13
SAGGSAGGPKIRIEIEHYDNYIVISIRIPPGMPPGQEIKFEIGGYPVKVTYDPEDGWMTISFPASAGGSAGG [r6_267_TrROS]	3.06 ± 0.082	3.24 ± 0.076	3.2 ± 0.14
SAGGSMKVYEFKSLEEIKKAIENLPPNEKYIVIKKNKNGKLEIIIVSKEEEEELKKKGVDFIIKVKSAGGSA [r2_351_TrROS_Hall]	2.21 ± 0.07	0.788 ± 0.089	1.95 ± 0.43
SAGGSAGGMYVIRVKIYDKETGELIEELTLVFDSEEEAERAVRELAAALPPDVRVEVEIVKLPPSAGGSAGG [r6_688_TrROS_Hall]	4.85 ± 0.059	5.01 ± 0.18	4.99 ± 0.096
SAGGGMTVVRITHPDGTPLTIEYDPNNPVATVHFADGTTETIPMPPDKTIEDLIAKLPEDAEVEVHDRSAGG [r13_696_JUSTAS]	1.19 ± 0.026	0.321 ± 0.078	0.847 ± 0.14
SAGGMTKIEVEYYPEKITVTVTTDNPSENPLDIIKKKTGFKIEGGEVLYPSPNVVVVKLKVDPKDLKKSAGG [r13_498_JUSTAS]	1.07 ± 0.11	0.443 ± 0.11	0.799 ± 0.27
SAMYVYRARVEVRGPDGELLAEEEIVAESPEELKVAVLERFGLKESEIVRLEVEPVIPLEEFLELLEKGSAG [r14_852_TrMRF]	2.48 ± 0.068	2.05 ± 0.042	2.39 ± 0.11
SAGGSAGGSAGMPLKVTVLSTSPLLESSELVTVKITPPDGSVVVIPSSVSLEEVEKLLLSSAGGSAGGSAGG [r17_353_JUSTAS]	0.05 ± 0.07	0.784 ± 0.024	0.558 ± 0.051
SAGGSAGGSMTSVTTLVETETLTNGNTIVPQLVQITVTLEVPAVPPEEIKPKPAPGDRWTYYSSAGGSAGGS [r12_1031_JUSTAS]	1.1 ± 0.16	1.01 ± 0.073	1.12 ± 0.18
SAGGSAGGSAGGKIIEVKEENGEVYLLVEVDGKKEVIKFPKGAKLEEIKVDVKEVKVLKPSAGGSAGGSAGG [r7_373_TrROS_Hall]	0.563 ± 0.1	-0.0364 ± 0.065	0.539 ± 0.12
SGSMTIKLTPDSPVEDVVKFIAENPNVNVTLLMPPEMSEELREKFEKALKEANVPKSQKVTFEVVPPGEESA [r9_670_JUSTAS]	3.87 ± 0.099	2.6 ± 0.14	3.55 ± 0.15
